US7067277B1, “Chimeric G proteins and uses thereof” (H. Lundbeck A/S, priority 1999, dated 2006)

How the values were obtained:
[1] = system: panel of 7 Gαs-coupling receptors; experiment: Detection rate in COS-7 calcium mobilization over Gαs-coupling GPCR; format: cell-based, human; settings: COS-7, stimulated with appropriate agonists
Description: (§1) COS-7 cells were cultured in 225 cm^2 flasks in Dulbecco's Modified Eagle Medium (DMEM) with supplements (10% bovine calf serum, 4 mM glutamine, 100 units/ml penicillin and 100 μg/ml streptomycin) at 37° C., 5% CO2. Stock plates of COS-7 cells were trypsinized and split 1:6 every 3–4 days.
GPCR and chimeric G protein cDNAs were transiently transfected into COS-7 cells in 150 cm^2 flasks by the DEAE-dextran method (Cullen, 1987), using a total of 20 μg of DNA/˜7×10^6 cells. For evaluating the function of a single chimeric G protein, the standard cDNA transfection ratio was 1:1 (10 μg GPCR cDNA and 10 μg chimeric G protein cDNA). […]
Twenty four hours after transient transfection, COS-7 cells were seeded into 96-well black wall microtiter plates coated with poly-D-lysine for assay the following day. […] Basal fluorescence was monitored in a fluorometric imaging plate reader (FLIPR™, Molecular Devices) with an excitation wavelength of 488 nm and an emission range of 500 to 560 nm. Laser excitation energy was adjusted so that basal fluorescence readings were approximately 10,000 relative fluorescent units. Cells were stimulated with agonists diluted in assay buffer (50 μl), and relative fluorescent units were measured at defined intervals (exposure=0.4 sec) over a 3 min period at room temperature. Maximum change in fluorescence was calculated for each well. […]

h D1 = target: T1, h D1 (Homo sapiens, UniProt P21728); experiment: Calcium mobilization (FLIPR, Fluo-3) in transfected COS-7 cells; format: cell-based; settings: h D1 + chimera in COS-7; agonist DA, max 100 μM
T1 construct: expressed in transfected cells; host or cells: COS-7
Description: as §1
For evaluating the function of a single chimeric G protein, the standard cDNA transfection ratio was 1:1 (10 μg GPCR cDNA and 10 μg chimeric G protein cDNA). For evaluating the function of a mixture of chimeric G proteins, the standard cDNA transfection ratio was 8:1:1 (16 μg GPCR cDNA, 2 μg Gαq/z cDNA, 2 μg Gαq/s cDNA).
Twenty four hours after transient transfection, COS-7 cells were seeded into 96-well black wall microtiter plates coated with poly-D-lysine for assay the following day. […] After excess dye was discarded, cells were washed in assay buffer and layered with a final volume equal to 100 μl/well. Basal fluorescence was monitored in a fluorometric imaging plate reader (FLIPR™, Molecular Devices) with an excitation wavelength of 488 nm and an emission range of 500 to 560 nm. Laser excitation energy was adjusted so that basal fluorescence readings were approximately 10,000 relative fluorescent units. Cells were stimulated with agonists diluted in assay buffer (50 μl), and relative fluorescent units were measured at defined intervals (exposure=0.4 sec) over a 3 min period at room temperature. Maximum change in fluorescence was calculated for each well. Concentration-response curves derived from the maximum change in fluorescence were analyzed by nonlinear regression (Hill equation).

h D5 = h D5 (Homo sapiens, UniProt P21918); experiment: as above; format: cell-based; settings: h D5 + chimera in COS-7; agonist DA, max 100 μM
Description: as §1
(§2) GPCR and chimeric G protein cDNAs were transiently transfected into COS-7 cells in 150 cm^2 flasks by the DEAE-dextran method (Cullen, 1987), using a total of 20 μg of DNA/˜7×10^6 cells. For evaluating the function of a single chimeric G protein, the standard cDNA transfection ratio was 1:1 (10 μg GPCR cDNA and 10 μg chimeric G protein cDNA). For evaluating the function of a mixture of chimeric G proteins, the standard cDNA transfection ratio was 8:1:1 (16 μg GPCR cDNA, 2 μg Gαq/z cDNA, 2 μg Gαq/s cDNA).
(§3) Twenty four hours after transient transfection, COS-7 cells were seeded into 96-well black wall microtiter plates coated with poly-D-lysine for assay the following day. Just prior to assay, culture medium was aspirated and cells were dye-loaded with 4 μM Fluo-3/0.01% pluronic acid in assay buffer composed of Hank's Balanced Salt Solution (138 mM NaCl, 5 mM KCl, 1.3 mM CaCl2, 0.5 mM MgCl2, 0.4 mM MgSO4, 0.3 mM KH2PO4, 0.3 mM Na2HPO4, 5.6 mM glucose) plus 20 mM HEPES (pH 7.4), 0.1% BSA and 2.5 mM probenicid (100 μl/well) for 1 hour in 5% CO2 at 37° C. After excess dye was discarded, cells were washed in assay buffer and layered with a final volume equal to 100 μl/well. Basal fluorescence was monitored in a fluorometric imaging plate reader (FLIPR™, Molecular Devices) with an excitation wavelength of 488 nm and an emission range of 500 to 560 nm. Laser excitation energy was adjusted so that basal fluorescence readings were approximately 10,000 relative fluorescent units. Cells were stimulated with agonists diluted in assay buffer (50 μl), and relative fluorescent units were measured at defined intervals (exposure=0.4 sec) over a 3 min period at room temperature. Maximum change in fluorescence was calculated for each well. Concentration-response curves derived from the maximum change in fluorescence were analyzed by nonlinear regression (Hill equation).

h GLP-1 = h GLP-1 (Homo sapiens, UniProt P43220); experiment: as above; format: cell-based; settings: h GLP-1 + chimera in COS-7; agonist GLP-1, max 10 μM
Description: as §1, §2, §3

h 5HT6 = h 5HT6 (Homo sapiens, UniProt P50406); experiment: as above; format: cell-based; settings: h 5HT6 + chimera in COS-7; agonist 5HT, max 100 μM
Description: as §1, §2, §3

h 5HT7 = h 5HT7 (Homo sapiens, UniProt P34969); experiment: as above; format: cell-based; settings: h 5HT7 + chimera in COS-7; agonist 5HT, max 100 μM
Description: as §1, §2, §3

h β2 adr = h β2 adr (Homo sapiens, UniProt P07550); experiment: as above; format: cell-based; settings: h β2 adr + chimera in COS-7; agonist NE, max 100 μM
Description: as §1, §2, §3

h 5HT4 = h 5HT4 (Homo sapiens, UniProt Q13639); experiment: as above; format: cell-based; settings: h 5HT4 + chimera in COS-7; agonist 5HT, max 100 μM
Description: as §1, §2, §3

T1 sequence (P21728 whole entry): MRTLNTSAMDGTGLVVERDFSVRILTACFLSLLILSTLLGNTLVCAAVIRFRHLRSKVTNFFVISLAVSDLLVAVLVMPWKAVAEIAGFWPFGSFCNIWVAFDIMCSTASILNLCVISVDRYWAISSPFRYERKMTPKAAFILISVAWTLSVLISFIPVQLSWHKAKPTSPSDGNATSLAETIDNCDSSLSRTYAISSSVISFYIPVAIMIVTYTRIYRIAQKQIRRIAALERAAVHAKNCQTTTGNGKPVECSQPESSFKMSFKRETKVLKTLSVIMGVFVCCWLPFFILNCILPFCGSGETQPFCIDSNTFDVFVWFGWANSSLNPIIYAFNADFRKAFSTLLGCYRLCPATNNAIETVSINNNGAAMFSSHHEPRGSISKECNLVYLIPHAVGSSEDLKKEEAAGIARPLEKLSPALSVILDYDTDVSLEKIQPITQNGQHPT
Sequence of h 5HT7 (P34969 whole entry): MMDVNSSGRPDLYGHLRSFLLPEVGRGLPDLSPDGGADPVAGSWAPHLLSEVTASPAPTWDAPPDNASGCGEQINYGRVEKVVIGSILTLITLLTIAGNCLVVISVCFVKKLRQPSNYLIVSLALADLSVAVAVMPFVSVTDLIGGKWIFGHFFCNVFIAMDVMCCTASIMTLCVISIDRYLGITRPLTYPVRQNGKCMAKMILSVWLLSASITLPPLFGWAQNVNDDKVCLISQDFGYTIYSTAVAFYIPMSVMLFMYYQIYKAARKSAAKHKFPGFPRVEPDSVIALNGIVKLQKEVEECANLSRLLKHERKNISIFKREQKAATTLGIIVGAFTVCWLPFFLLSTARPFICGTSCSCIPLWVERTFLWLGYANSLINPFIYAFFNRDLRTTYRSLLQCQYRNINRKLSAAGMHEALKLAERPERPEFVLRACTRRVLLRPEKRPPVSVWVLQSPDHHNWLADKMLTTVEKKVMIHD
Sequence of h D5 (P21918 whole entry): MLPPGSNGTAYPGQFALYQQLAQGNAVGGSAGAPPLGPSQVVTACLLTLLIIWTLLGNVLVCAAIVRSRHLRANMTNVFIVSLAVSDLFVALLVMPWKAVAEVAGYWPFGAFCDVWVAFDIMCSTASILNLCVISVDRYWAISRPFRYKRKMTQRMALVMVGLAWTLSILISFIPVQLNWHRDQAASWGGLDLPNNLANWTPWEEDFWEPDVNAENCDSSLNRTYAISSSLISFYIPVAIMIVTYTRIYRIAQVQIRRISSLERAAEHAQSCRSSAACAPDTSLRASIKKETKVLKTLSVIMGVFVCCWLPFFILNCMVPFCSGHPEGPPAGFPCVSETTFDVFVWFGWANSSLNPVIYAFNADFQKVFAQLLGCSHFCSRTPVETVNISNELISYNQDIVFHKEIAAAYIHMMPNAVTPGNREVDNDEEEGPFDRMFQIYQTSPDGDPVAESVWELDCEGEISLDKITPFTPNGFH
Sequence of h 5HT6 (P50406 whole entry): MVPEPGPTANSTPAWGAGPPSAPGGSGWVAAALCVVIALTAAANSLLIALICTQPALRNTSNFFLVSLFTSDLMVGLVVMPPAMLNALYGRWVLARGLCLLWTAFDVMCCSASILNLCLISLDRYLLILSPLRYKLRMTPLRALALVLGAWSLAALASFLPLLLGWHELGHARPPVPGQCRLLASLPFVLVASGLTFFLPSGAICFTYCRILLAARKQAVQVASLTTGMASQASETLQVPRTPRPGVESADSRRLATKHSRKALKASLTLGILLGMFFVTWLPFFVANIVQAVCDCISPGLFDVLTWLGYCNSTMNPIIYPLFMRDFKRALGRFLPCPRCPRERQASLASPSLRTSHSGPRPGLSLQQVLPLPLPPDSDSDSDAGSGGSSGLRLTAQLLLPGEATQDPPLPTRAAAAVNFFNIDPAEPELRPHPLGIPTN
Sequence of h GLP-1 (P43220 24-463): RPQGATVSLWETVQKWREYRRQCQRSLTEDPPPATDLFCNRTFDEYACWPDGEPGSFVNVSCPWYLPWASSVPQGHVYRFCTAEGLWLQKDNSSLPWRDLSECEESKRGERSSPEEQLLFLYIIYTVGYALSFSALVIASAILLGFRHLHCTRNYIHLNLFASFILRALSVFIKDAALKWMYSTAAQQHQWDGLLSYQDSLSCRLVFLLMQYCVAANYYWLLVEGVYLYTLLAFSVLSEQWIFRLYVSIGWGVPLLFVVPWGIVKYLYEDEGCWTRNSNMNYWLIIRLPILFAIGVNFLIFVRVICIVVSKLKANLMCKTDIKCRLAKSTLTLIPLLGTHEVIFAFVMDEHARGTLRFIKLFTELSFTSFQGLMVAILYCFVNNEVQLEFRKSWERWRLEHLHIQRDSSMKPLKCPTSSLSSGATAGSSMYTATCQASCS
Sequence of h 5HT4 (Q13639 whole entry): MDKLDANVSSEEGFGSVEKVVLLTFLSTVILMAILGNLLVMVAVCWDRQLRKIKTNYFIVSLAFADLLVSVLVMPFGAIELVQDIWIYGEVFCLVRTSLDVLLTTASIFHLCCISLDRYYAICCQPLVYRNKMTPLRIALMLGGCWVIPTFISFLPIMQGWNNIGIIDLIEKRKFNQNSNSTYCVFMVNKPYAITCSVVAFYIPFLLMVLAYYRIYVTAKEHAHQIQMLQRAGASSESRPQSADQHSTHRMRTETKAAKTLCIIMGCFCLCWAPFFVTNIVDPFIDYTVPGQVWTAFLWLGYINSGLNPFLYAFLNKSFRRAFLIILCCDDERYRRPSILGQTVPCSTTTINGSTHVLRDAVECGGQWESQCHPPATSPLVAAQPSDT

B1: cGαq/s9: C. elegans Gαq backbone with 9 C-terminal amino acids of Gαs (SEQ ID NO: 3) (protein)
chain: MACCLSEEAREQKRINQEIEKQLQRDKRNARRELKLLLLGTGESGKSTFIKQMRIIHGQGYSEEDKRAHIRLVYQNVFMAIQSMIRAMDTLDIKFGNESEELQEKAAVVREVDFESVTSFEEPYVSYIKELWEDSGIQECYDRRREYQLTDSAKYYLSDLRRLAVPDYLPTEQDILRVRVPTTGIIEYPFDLEQIIFRMVDVGGQRSERRKWIHCFENVTSIMFLVALSEYDQVLVECDNENRMEESKALFRTIITYPWFTNSSVILFLNKKDLLEEKILYSHLADYFPEYDGPPRDPIAAREFILKMFVDLNPDADKIIYSHFTCATDTENIRFVFAAVKDTILQMHLRQYELL
modifications: C. elegans
With B1 the “Gαs-coupling receptors generating positive responses (>500 fluorescence units) / receptors tested” value [1] was 6/7, the “percent of Gαs-coupling receptors generating positive responses (>500 fluorescence units)” value [1] was 81% and the “MAXIMAL SIGNAL (FLUORESCENCE UNITS)” value (h D1) was 8692 fluorescence units. The “MAXIMAL SIGNAL (FLUORESCENCE UNITS)” value (h D5) was 1870 fluorescence units, the “MAXIMAL SIGNAL (FLUORESCENCE UNITS)” value (h GLP-1) was 2461 fluorescence units and the “MAXIMAL SIGNAL (FLUORESCENCE UNITS)” value (h 5HT6) was 1639 fluorescence units. The “MAXIMAL SIGNAL (FLUORESCENCE UNITS)” value (h 5HT7) was 387 fluorescence units, the “MAXIMAL SIGNAL (FLUORESCENCE UNITS)” value (h β2 adr) was 3106 fluorescence units and the “MAXIMAL SIGNAL (FLUORESCENCE UNITS)” value (h 5HT4) was 1701 fluorescence units.
